Laboratory results as given in patent US7442375B2, “Compositions of beta-defensin inducing agents” (Case Western Reserve University, priority 2002, dated 2008).

Key:
Assay type in all cases: cell-based
HIV-1 R5 B-93US142 = conditions: virus preincubated 1 h with hBD in 10 mM PB; GHOST cells 48 h; GFP fluorescence
Protocol: (§1) HIV-1 strains (X4 HXB2 and R5 93US142) were incubated in 10 mM PB with increasing concentrations of hBD and used to infect GHOST X4/R5 cells. (a) Qualitative determination of HIV-1 infection, measured by GFP fluorescence, in the absence (−C) and presence (+C) of virus preincubated in 10 mM PB. (b) Anti-HIV-1 activity of hBD in GHOST X4/R5 cells using fluorescence microscopy. (c) Anti-HIV-1 activity of hBD measured by RT activity in cell-free culture supernatant, relative to the positive control (i.e., HIV-1 infection in the absence of hBD). (d) Antiretroviral activity of hBD against CXCR4- and CCR5-tropic HIV-1 strains in three different environments: DMEM+10% FBS (complete medium); DMEM alone (Medium no FBS); 10 mM PB. Viruses were incubated with 20 μg/ml of each hBD for 1 h in each condition and used to infect CEM X4/R5 cells as described. Results are representative of three independent experiments.
(§2) HIV-1 isolates were incubated with increasing concentrations (5-40 μg/ml) of hBD-1, -2, and -3, in three different conditions: high salt complete medium (RPMI-1640 or DMEM supplemented with 10% fetal bovine serum, FBS); high salt medium in the absence of FBS; or low salt medium (10 mM phosphate buffer), 37° C. for 1 h. Respective mixtures were used to infect PBMC, Ghost X4/R5 or CEM X4/R5 cells at an MOI of […]. After 2 h incubation at 37° C., 5% CO2, cells were washed three times with phosphate-buffered saline (PBS) and cultured in complete medium for 48 h. In the case of Ghost X4/R5 cells, these were washed, resuspended in PBS, and analyzed by fluorescence microscopy for GFP expression as described [Morner et al.]. Cell-free supernatants from PBMC, Ghost X4/R5 and CEM X4/R5 cultures were used to monitor infectivity by the reverse transcriptase (RT) assay [Quinones-Mateu et al.]. The 50% inhibitory concentration (IC50) of each hBD was determined using X4 or R5 HIV-1 isolates. Viruses (0.01 MOI) were incubated with increasing concentrations of hBD-1, -2, and 3 (up to 40 µg/ml) in low salt medium for 1 h and used to infect CEM X4/R5 cells. After 2 h incubation at 37° C., 5% CO2, cells were washed twice with PBS and cultured in complete medium. Supernatant samples were removed on day 5 post-infection and virus production was measured using […] the RT assay [Id.]. Cytotoxicity of hBD was quantified by determining the number of viable cells using a tetrazolium-based colorimetric (MTT) assay [Pauwels et al.].
(§3) Since the antibacterial activity of beta-defensins is sensitive to high salt and serum concentrations, the anti-HIV-1 activity of hBD was initially evaluated in a low salt, serum free environment, mimicking oral mucosal conditions [Mandel et al.]. Two HIV-1 isolates (X4 B-HXB2 and R5 B-93US142) were preincubated for 1 h with increasing concentrations of recombinant hBD-1, -2, and -3, in 10 mM phosphate buffer (PB). GHOST CCR5/CXCR4 cells were then exposed to the mixtures for 48 h in complete medium. […] When CXCR4- and CCR5-tropic HIV-1 strains were preincubated with beta-defensins in high salt medium (DMEM) supplemented with 10% FBS, no antiviral effect was detected (FIG. 4d). However, preincubation in DMEM without FBS inhibited replication of X4, but not R5, HIV-1 isolates (FIG. 4d). Under low salt conditions (i.e., 10 mM PB, no FBS) the 50% inhibitory concentration for both agents against X4 and R5 viruses ranged from 9 to 19 μg/ml and 20 to 40 μg/ml, respectively.

HIV-1 X4 B-HXB2 = conditions: virus preincubated 1 h with hBD in 10 mM PB; GHOST cells 48 h; GFP fluorescence
Protocol: as §1, §2, §3

CCR5 = CCR5 (Homo sapiens, UniProt P51681); assay: Flow cytometric analysis of co-receptor surface expression on unstimulated PBMC; set-up: endogenous in cells; host or cells: unstimulated peripheral blood mononuclear cells (PBMC); conditions: 30 μg/ml, 3 h, high salt medium without FBS
Protocol: (§4) Unstimulated PBMC were treated for 3 hrs with hBD-1, -2, or -3 (30 μg/ml) in DMEM (high salt) in the absence of FBS. The CXCR4 natural ligand SDF-1AE (2 μg/ml) and the CCR5 antagonist PSC-RANTES (100 nM) were used as positive controls. CXCR4 and CCR5 surface expression was calculated using known ratios of QuantiBRITE-PE beads (Becton Dickenson) by flow cytometry. Results are the means of seven experiments±SD.
(§5) Unstimulated PBMC were treated with 30 μg/ml hBD-1, -2, or -3 in high salt medium (RPMI-1640) in the absence of FBS, 3 h. The CXCR4 natural ligand SDF-1α (R&D Systems, Minneapolis, Minn., USA) and the CCR5 antagonist PSC-RANTES were used as controls. Cells were incubated with peridinin chlorophyll protein-conjugated anti-human CD4 antibody, and either phycoerythrin (PE)-conjugated anti-human CXCR4 antibody, PE-conjugated anti-human CCR5 antibody, or PE-conjugated mouse immunoglobulin G2a (IgG2a), isotype standard (PharmMingen, San Diego, Calif., USA) [Salkowitz et al.]. Fluorescence intensity was reported as receptor density by quantitative flow cytometry (FACSCaliber; Becton Dickenson, San Jose, Calif., USA) [Iyer et al.]. Data were analyzed using CELLQuest software (Becton Dickenson).
(§6) Surface expression of CXCR4 was decreased by 51%±18% and 52%±20% (SD) respectively after incubation with 30 μg/ml of hBD-2 or hBD-3 (FIG. 5).

CXCR4 = CXCR4 (Homo sapiens, UniProt P61073); assay: as above; set-up: endogenous in cells; host or cells: unstimulated peripheral blood mononuclear cells (PBMC); conditions: 30 μg/ml, 3 h, high salt medium without FBS
Protocol: as §4, §5, §6

Sequence of CXCR4 (P61073 whole entry): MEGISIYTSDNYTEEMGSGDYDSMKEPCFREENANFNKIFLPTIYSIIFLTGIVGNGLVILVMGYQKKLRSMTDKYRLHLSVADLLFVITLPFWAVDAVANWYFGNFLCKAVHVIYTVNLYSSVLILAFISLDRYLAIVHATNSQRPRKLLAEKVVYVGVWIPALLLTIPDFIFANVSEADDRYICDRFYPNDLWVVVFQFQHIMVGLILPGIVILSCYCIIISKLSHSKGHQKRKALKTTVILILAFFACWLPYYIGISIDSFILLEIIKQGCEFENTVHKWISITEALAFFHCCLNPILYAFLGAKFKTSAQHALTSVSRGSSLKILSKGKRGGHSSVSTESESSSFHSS
Sequence of CCR5 (P51681 whole entry): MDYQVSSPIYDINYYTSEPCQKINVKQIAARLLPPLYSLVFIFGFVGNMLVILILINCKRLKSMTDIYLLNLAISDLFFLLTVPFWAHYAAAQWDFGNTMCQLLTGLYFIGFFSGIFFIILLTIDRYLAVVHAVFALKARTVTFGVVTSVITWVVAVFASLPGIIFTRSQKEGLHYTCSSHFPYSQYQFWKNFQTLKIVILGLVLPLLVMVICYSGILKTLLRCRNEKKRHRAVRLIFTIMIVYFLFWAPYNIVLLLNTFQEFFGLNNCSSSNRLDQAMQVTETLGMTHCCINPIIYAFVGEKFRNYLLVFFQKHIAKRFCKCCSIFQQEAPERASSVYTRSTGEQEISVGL

B1: hBD-3: Recombinant human β-defensin 3 produced using an hBD-3-His tag fusion construct cloned into pET-30c; exemplary sequence SEQ ID NO:15 (protein, listed as Homo sapiens)
chain: MRIHYLLFALLFLFLVPVPGHGGIINTLQKYYCRVRGGRCAVLSCLPKEEQIGKCSTRGRKCCRRKK
modifications: not fully specified (C-terminus); ends and bridges not checked
- anti-HIV-1 activity (HIV-1 R5 B-93US142): showed anti-HIV-1 activity
- anti-HIV-1 activity (HIV-1 X4 B-HXB2): showed anti-HIV-1 activity
- effect on CCR5 expression (CCR5): not altered
- decrease of surface expression of CXCR4 (±SD) (CXCR4): 52%±20%
